Laboratory results reported in patent publication US8389680B2, “Treatment of Aspergillus infections with alpha thymosin peptides” (SciClone Pharmaceuticals, Inc., priority 2003, dated 2013).
“Also recorded” adds a separate entry of the source.

Target: T1, human TLR9 (Homo sapiens, UniProt Q9NR96)
T1 construct: expressed in transfected cells; host or cells: HEK293
T1 sequence (Q9NR96 26-1032): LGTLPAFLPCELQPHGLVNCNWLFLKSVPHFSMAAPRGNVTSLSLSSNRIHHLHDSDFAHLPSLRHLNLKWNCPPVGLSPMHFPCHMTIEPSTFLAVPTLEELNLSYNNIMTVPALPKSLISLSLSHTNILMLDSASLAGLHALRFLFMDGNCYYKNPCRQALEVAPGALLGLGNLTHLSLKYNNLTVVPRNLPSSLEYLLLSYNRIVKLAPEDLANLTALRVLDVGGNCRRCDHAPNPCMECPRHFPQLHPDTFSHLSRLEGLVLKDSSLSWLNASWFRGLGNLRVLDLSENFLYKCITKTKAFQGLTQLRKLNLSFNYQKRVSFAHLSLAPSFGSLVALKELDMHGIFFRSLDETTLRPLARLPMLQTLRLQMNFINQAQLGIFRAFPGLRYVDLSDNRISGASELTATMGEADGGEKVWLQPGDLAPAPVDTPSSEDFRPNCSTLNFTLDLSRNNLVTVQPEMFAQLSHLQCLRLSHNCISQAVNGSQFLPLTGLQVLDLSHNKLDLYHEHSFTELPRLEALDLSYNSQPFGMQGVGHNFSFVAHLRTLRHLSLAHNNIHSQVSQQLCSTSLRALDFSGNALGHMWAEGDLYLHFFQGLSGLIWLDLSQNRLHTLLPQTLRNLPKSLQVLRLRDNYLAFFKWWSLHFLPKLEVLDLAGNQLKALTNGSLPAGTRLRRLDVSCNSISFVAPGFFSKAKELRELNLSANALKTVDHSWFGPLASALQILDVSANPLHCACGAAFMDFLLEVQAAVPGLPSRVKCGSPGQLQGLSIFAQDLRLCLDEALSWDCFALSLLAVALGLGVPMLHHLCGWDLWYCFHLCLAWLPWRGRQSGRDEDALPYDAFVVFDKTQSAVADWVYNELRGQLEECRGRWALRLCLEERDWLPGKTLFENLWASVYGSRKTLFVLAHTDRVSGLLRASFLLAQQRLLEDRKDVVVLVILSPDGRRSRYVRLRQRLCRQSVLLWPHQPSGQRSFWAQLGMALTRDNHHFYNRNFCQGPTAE
Assay: IL-8 production by TLR9-transfected HEK293 cells
Format: cell-based
Procedure: The human embryonic kidney cell line HEK293, wild type or stably transfected with human TLR2, TLR9 and TLR4/CD1427 were cultured in low glucose Dulbecco's modified Eagle's medium supplemented with 10% FCS, HEPES ([…]), L-glutamine ([…]), and gentamycin (50 microgram/ml). Transfectants were additionally supplemented with puromycin (100 microgram/ml). For stimulation experiments, cells were cultured at a density of 3 to 5×10^5 cells/wells in 12-well tissue culture plates overnight. Cells were washed and stimulated with 100 ng/ml TA1 either alone or together with TLR ligands for 5 h before the assessment of IL-8 production in the supernatants.
The levels of TNF-alpha, IL-10, IL-12 p70, IFN-alpha and IL-8 in culture supernatants were determined by Kit ELISAs. The detection limits (pg/ml) of the assays were <3 (human) and <32 (murine) for TNF-alpha, <12 (murine) and <5 (human) for IL-10, <16 (murine) and <3 (human) for IL-12 p70 and <25 (human) IL-8. For human IFN-alpha <3 ng/ml. For enumeration of cytokine-producing cells, an ELISPOT assay was used on purified CD4^+ T cells and DCs from lungs.

Ac-Ser-Asp-Ala-Ala-Val-Asp-Thr-Ser-Ser-Glu-Ile-Thr-Thr-Lys-Asp-Leu-Lys-Glu-Lys-Lys-Glu-Val-Glu-Glu-Ala-Glu-Asn-O (Ac-SDAAVDTSSEITTKDLKEKKEVEEAEN-OH) [TA1, naturally occurring thymic peptide]
production of IL-8 (TA1 alone, 100 ng/ml, 5 h): directly activate; also recorded: significantly increased
production of IL-8 (in response to the TLR9 ligand CpG): significantly increased
